Patent US20220010021A1 (Sanofi, published 2022)

T1: human beta-Klotho (KLB) (human, UniProt Q86Z14 53-997)
T1 construct: Bought soluble protein; also called human KLB; ß-Klotho
T1 sequence (looked up): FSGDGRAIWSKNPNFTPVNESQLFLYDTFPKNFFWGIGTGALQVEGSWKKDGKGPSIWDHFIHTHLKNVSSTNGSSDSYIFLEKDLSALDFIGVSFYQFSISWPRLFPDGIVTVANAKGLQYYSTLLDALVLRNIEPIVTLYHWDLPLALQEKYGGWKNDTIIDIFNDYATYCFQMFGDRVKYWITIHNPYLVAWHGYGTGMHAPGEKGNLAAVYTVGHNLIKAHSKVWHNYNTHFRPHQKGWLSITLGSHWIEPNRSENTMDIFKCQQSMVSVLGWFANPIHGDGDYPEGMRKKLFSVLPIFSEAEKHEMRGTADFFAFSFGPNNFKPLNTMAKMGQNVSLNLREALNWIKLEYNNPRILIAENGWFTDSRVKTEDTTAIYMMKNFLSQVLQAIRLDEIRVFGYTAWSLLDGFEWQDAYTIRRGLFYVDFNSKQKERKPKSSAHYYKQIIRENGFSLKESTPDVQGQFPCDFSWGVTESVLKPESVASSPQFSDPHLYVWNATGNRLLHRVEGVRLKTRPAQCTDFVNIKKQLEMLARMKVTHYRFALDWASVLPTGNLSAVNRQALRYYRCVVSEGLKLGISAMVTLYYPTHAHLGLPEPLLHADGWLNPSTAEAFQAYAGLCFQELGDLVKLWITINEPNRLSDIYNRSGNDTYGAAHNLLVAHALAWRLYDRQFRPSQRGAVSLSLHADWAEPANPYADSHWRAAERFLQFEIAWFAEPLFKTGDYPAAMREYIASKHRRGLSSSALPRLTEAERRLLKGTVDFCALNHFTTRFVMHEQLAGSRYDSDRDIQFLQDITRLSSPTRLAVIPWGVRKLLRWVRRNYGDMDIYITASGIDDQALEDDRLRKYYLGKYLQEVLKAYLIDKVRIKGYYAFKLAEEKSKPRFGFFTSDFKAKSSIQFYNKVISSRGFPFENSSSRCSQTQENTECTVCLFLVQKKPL


Tests used:
human beta-Klotho (KLB) = target: T1, human beta-Klotho (KLB); assay: BLI off-rate screen, supernatant;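 also: expression supernatants tested at 25 µg/mL, dissociation followed for 1800 s in D-PBS with 0.1% BSA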
[1] = target: cell surface receptor composed of FGFR1c and co-receptor beta-Klotho (KLB) (human, UniProt P11362 22-822; Q86Z14 1-1044); assay: cell-based or functional assay; as to Mean E max, Luciferase reporter gene assay: reference of the scale not given here
Sequence of cell surface receptor composed of FGFR1c and co-receptor beta-Klotho (KLB) (P11362 22-822, chain 1 of 2): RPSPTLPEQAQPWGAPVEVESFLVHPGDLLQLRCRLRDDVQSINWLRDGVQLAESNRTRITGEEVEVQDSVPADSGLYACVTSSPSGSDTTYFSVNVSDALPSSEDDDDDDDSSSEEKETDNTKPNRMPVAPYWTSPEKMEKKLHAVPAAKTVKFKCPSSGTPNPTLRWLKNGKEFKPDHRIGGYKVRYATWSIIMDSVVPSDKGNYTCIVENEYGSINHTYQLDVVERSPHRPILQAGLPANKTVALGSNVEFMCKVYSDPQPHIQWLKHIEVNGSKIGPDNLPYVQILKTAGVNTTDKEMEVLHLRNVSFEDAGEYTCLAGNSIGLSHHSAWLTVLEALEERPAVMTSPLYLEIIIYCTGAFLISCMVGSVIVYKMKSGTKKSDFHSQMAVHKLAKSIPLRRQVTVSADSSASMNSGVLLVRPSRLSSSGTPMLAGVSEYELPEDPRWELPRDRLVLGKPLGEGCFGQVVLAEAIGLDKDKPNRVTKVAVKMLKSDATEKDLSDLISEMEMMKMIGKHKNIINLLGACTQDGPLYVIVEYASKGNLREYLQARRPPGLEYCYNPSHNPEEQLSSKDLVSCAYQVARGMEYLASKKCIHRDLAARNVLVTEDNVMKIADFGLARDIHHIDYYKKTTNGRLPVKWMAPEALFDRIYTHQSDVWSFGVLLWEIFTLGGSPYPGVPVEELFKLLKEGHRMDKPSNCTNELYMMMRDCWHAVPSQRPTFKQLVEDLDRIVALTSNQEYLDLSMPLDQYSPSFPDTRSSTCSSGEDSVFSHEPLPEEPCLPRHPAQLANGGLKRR
Sequence of cell surface receptor composed of FGFR1c and co-receptor beta-Klotho (KLB) (Q86Z14 whole entry, chain 2 of 2): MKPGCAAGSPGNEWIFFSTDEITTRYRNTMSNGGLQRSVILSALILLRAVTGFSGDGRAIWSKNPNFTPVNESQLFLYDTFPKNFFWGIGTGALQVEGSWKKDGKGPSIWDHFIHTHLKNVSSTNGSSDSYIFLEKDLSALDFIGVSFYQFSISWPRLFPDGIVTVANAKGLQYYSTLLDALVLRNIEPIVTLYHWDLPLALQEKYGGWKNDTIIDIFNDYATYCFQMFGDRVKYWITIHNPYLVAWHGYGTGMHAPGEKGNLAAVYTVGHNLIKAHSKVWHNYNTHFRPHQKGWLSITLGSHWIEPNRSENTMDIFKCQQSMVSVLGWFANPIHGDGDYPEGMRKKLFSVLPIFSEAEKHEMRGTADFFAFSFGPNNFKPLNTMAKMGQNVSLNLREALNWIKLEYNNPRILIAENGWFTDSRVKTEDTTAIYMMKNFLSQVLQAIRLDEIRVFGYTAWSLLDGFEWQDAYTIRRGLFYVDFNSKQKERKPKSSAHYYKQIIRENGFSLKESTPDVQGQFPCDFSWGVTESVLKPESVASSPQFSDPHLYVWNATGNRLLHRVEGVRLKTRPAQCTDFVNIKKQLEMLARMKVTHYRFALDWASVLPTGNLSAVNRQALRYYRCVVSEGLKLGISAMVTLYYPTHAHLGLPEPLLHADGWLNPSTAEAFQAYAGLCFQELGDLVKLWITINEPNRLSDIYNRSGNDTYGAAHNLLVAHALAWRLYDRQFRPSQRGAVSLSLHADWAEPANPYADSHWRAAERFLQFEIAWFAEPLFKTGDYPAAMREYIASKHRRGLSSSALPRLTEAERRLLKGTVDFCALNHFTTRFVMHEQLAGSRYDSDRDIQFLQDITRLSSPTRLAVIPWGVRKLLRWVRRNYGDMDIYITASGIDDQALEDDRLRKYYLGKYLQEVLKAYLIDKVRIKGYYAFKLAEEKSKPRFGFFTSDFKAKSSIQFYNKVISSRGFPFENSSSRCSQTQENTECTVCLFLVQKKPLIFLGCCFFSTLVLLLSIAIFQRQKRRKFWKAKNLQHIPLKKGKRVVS

Row | Binder | koff (human beta-Klotho (KLB)) [s⁻¹] | Mean E max, Luciferase reporter gene assay [1] [%] | Mean EC50, Luciferase reporter gene assay [1] [nM]
1 | 16H7 light chain variant S29G (antibody, V domains shown, copies: 2 + 2) VH: not shown VL: SYVLTQPPSVSVAPGQTARITCGGNNIGGESVHWYQQKPGQAPVLVVYDDSDRPSGIPERFSGSNSGNTATLTISRVEAGDEADYYCQVWDGNSDHVVFGGGTKLTVLG | 3.5e-05 | 98 | 0.09
2 | 16H7 light chain variant S31G (antibody, human IgG4 S228P, lambda, V domains shown) VH: not shown VL: SYVLTQPPSVSVAPGQTARITCGGNNIGSEGVHWYQQKPGQAPVLVVYDDSDRPSGIPERFSGSNSGNTATLTISRVEAGDEADYYCQVWDGNSDHVVFGGGTKLTVLG | 5.5e-05 | 109 | 0.111
3 | 16H7 light chain variant S31R (antibody, human IgG4 S228P, lambda, V domains shown) VH: not shown VL: SYVLTQPPSVSVAPGQTARITCGGNNIGSERVHWYQQKPGQAPVLVVYDDSDRPSGIPERFSGSNSGNTATLTISRVEAGDEADYYCQVWDGNSDHVVFGGGTKLTVLG | 4.2e-05 | 102 | 0.166
4 | 16H7 light chain variant S29K (antibody, human IgG4 S228P, lambda, V domains shown) VH: not shown VL: SYVLTQPPSVSVAPGQTARITCGGNNIGKESVHWYQQKPGQAPVLVVYDDSDRPSGIPERFSGSNSGNTATLTISRVEAGDEADYYCQVWDGNSDHVVFGGGTKLTVLG | 1.5e-05 | 96 | 0.146
5 | 16H7 light chain variant S29M (antibody, human IgG4 S228P, lambda, V domains shown) VH: not shown VL: SYVLTQPPSVSVAPGQTARITCGGNNIGMESVHWYQQKPGQAPVLVVYDDSDRPSGIPERFSGSNSGNTATLTISRVEAGDEADYYCQVWDGNSDHVVFGGGTKLTVLG | 2.3e-05 | 106 | 0.133
6 | 16H7 light chain variant S29I (antibody, human IgG4 S228P, lambda, V domains shown) VH: not shown VL: SYVLTQPPSVSVAPGQTARITCGGNNIGIESVHWYQQKPGQAPVLVVYDDSDRPSGIPERFSGSNSGNTATLTISRVEAGDEADYYCQVWDGNSDHVVFGGGTKLTVLG | 3e-05 | 107 | 0.14
7 | 16H7 light chain variant S29P (antibody, human IgG4 S228P, lambda, V domains shown) VH: not shown VL: SYVLTQPPSVSVAPGQTARITCGGNNIGPESVHWYQQKPGQAPVLVVYDDSDRPSGIPERFSGSNSGNTATLTISRVEAGDEADYYCQVWDGNSDHVVFGGGTKLTVLG | 5.2e-05 | 105 | 0.174
8 | 16H7 light chain variant S31D (antibody, human IgG4 S228P, lambda, V domains shown) VH: not shown VL: SYVLTQPPSVSVAPGQTARITCGGNNIGSEDVHWYQQKPGQAPVLVVYDDSDRPSGIPERFSGSNSGNTATLTISRVEAGDEADYYCQVWDGNSDHVVFGGGTKLTVLG | 0.00019 | 99 | 0.077
9 | 16H7 light chain variant S29L (antibody, V domains shown, copies: 2 + 2) VH: not shown VL: SYVLTQPPSVSVAPGQTARITCGGNNIGLESVHWYQQKPGQAPVLVVYDDSDRPSGIPERFSGSNSGNTATLTISRVEAGDEADYYCQVWDGNSDHVVFGGGTKLTVLG | 1.1e-05 | 100 | 0.108
10 | 16H7 light chain variant S31A (antibody, V domains shown, copies: 2 + 2) VH: not shown VL: SYVLTQPPSVSVAPGQTARITCGGNNIGSEAVHWYQQKPGQAPVLVVYDDSDRPSGIPERFSGSNSGNTATLTISRVEAGDEADYYCQVWDGNSDHVVFGGGTKLTVLG | 5.8e-05 | 100 | 0.099
11 | 16H7 light chain variant S31E (antibody, V domains shown, copies: 2 + 2) VH: not shown VL: SYVLTQPPSVSVAPGQTARITCGGNNIGSEEVHWYQQKPGQAPVLVVYDDSDRPSGIPERFSGSNSGNTATLTISRVEAGDEADYYCQVWDGNSDHVVFGGGTKLTVLG | 0.00031 | 98 | 0.111
12 | 16H7 light chain variant S31T (antibody, V domains shown, copies: 2 + 2) VH: not shown VL: SYVLTQPPSVSVAPGQTARITCGGNNIGSETVHWYQQKPGQAPVLVVYDDSDRPSGIPERFSGSNSGNTATLTISRVEAGDEADYYCQVWDGNSDHVVFGGGTKLTVLG | 0.00011 | 101 | 0.108
13 | 16H7 light chain variant S29R (antibody, V domains shown, copies: 2 + 2) VH: not shown VL: SYVLTQPPSVSVAPGQTARITCGGNNIGRESVHWYQQKPGQAPVLVVYDDSDRPSGIPERFSGSNSGNTATLTISRVEAGDEADYYCQVWDGNSDHVVFGGGTKLTVLG | 6.7e-06 | 105 | 0.184
14 | 16H7 light chain variant S29T (antibody, human IgG4 S228P, lambda, V domains shown) VH: not shown VL: SYVLTQPPSVSVAPGQTARITCGGNNIGTESVHWYQQKPGQAPVLVVYDDSDRPSGIPERFSGSNSGNTATLTISRVEAGDEADYYCQVWDGNSDHVVFGGGTKLTVLG | 2.2e-05 | 102 | 0.096
15 | 16H7 light chain variant S29H (antibody, V domains shown, copies: 2 + 2) VH: not shown VL: SYVLTQPPSVSVAPGQTARITCGGNNIGHESVHWYQQKPGQAPVLVVYDDSDRPSGIPERFSGSNSGNTATLTISRVEAGDEADYYCQVWDGNSDHVVFGGGTKLTVLG | 4.9e-05 | 100 | 0.119
16 | 16H7 light chain variant S31C (antibody, human IgG4 S228P, lambda, V domains shown) VH: not shown VL: SYVLTQPPSVSVAPGQTARITCGGNNIGSECVHWYQQKPGQAPVLVVYDDSDRPSGIPERFSGSNSGNTATLTISRVEAGDEADYYCQVWDGNSDHVVFGGGTKLTVLG | 0.00017 | 100 | 0.128
17 | 16H7 light chain variant S31P (antibody, V domains shown, copies: 2 + 2) VH: not shown VL: SYVLTQPPSVSVAPGQTARITCGGNNIGSEPVHWYQQKPGQAPVLVVYDDSDRPSGIPERFSGSNSGNTATLTISRVEAGDEADYYCQVWDGNSDHVVFGGGTKLTVLG | 6.6e-05 | 103 | 0.104
18 | 16H7 light chain variant S31I (antibody, human IgG4 S228P, lambda, V domains shown) VH: not shown VL: SYVLTQPPSVSVAPGQTARITCGGNNIGSEIVHWYQQKPGQAPVLVVYDDSDRPSGIPERFSGSNSGNTATLTISRVEAGDEADYYCQVWDGNSDHVVFGGGTKLTVLG | 0.00015 | 93 | 0.089
19 | 16H7 light chain variant S29Q (antibody, human IgG4 S228P, lambda, V domains shown) VH: not shown VL: SYVLTQPPSVSVAPGQTARITCGGNNIGQESVHWYQQKPGQAPVLVVYDDSDRPSGIPERFSGSNSGNTATLTISRVEAGDEADYYCQVWDGNSDHVVFGGGTKLTVLG | 2.2e-05 | 102 | 0.114
20 | 16H7 light chain variant S29V (antibody, human IgG4 S228P, lambda, V domains shown) VH: not shown VL: SYVLTQPPSVSVAPGQTARITCGGNNIGVESVHWYQQKPGQAPVLVVYDDSDRPSGIPERFSGSNSGNTATLTISRVEAGDEADYYCQVWDGNSDHVVFGGGTKLTVLG | 1.3e-05 | 107 | 0.109
21 | 16H7 light chain variant S31M (antibody, human IgG4 S228P, lambda, V domains shown) VH: not shown VL: SYVLTQPPSVSVAPGQTARITCGGNNIGSEMVHWYQQKPGQAPVLVVYDDSDRPSGIPERFSGSNSGNTATLTISRVEAGDEADYYCQVWDGNSDHVVFGGGTKLTVLG | 0.0003 | 97 | 0.151
